Target: human carcinoembryonic antigen-related cell adhesion molecule 1 (CEACAM1) (human) (UniProt P13688)
Experiment: cell-based or functional assay

Sequence of UniProt P13688 (P13688 35-526): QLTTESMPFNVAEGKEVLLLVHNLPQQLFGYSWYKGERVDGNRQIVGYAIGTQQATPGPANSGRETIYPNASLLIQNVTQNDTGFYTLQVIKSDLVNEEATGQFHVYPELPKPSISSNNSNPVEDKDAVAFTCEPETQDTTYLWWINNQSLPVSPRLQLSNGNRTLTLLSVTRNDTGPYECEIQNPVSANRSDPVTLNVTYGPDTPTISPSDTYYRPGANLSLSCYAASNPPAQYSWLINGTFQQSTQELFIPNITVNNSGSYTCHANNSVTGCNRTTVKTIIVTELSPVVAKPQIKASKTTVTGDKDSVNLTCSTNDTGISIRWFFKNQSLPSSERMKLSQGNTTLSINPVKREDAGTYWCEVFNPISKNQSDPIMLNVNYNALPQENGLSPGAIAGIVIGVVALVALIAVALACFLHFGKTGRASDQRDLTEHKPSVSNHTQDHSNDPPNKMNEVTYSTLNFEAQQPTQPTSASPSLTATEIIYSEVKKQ

% Inhibition of NET-induced migration (vs. isotype control), human NSCLC A549: 82.7% | % Inhibition of NET-induced migration (vs. isotype control), human PDAC AsPC-1: 49.1% | % Inhibition of NET-induced migration (vs. isotype control), human melanoma SKMEL-28: 69.5% | ADP-induced platelet aggregation, mean (ADP + CM24, 500 µg/ml, 30 min pretreat): 721 AUC | AUC of cell count, NET-induced migration of AsPC-1 cells (CM24 + NETs, 500 µg/ml): 30600 AUC | Mean AUC of cell count, NET-induced migration of A549 cells (CM24 + NETs, 500 µg/ml): 6580 AUC | Mean AUC of cell count, NET-induced migration of SKMEL-28 cells (CM24 + NETs, 500 µg/ml): 2950 AUC | Norm. AUC of cell count, NET-induced migration of A549 cells (CM24 + NETs, 500 µg/ml): 2170 AUC | Norm. AUC of cell count, NET-induced migration of AsPC-1 cells (CM24 + NETs, 500 µg/ml): 9410 AUC | Norm. AUC of cell count, NET-induced migration of SKMEL-28 cells (CM24 + NETs, 500 µg/ml): 1640 AUC | Percentage platelet aggregation at 30 min, fresh NETs 5 ng/µl, 500 µg/ml CM24: -5.3% | Percentage platelet aggregation at 30 min, fresh NETs 10 ng/µl, 500 µg/ml CM24: 11.5% | Platelet aggregation with fresh NETs 5 ng/µl, mean AUC (% aggregation versus time), 500 µg/ml CM24: 179 AUC | Platelet aggregation with fresh NETs 10 ng/µl, mean AUC (% aggregation versus time), 500 µg/ml CM24: 377 AUC | Reduction of NET-induced platelet aggregation vs. isotype control, 5 ng/µl fresh NETs: 70% | Reduction of NET-induced platelet aggregation vs. isotype control, 10 ng/µl fresh NETs: 53%
B1: CM24, humanized IgG4 anti-CEACAM1 monoclonal antibody (antibody, V domains shown)
VH: QVQLVQSGAEVKKPGASVKVSCKASGYAFTNNLIEWVRQAPGQGLEWIGVINPGSGDTNYNEKFKGRVTMTADKSISTAYMELSRLRSDDTAVYYCARGDYYGGFAVDYWGQGTTVTVSS
VL: DIQMTQSPSSLSASVGDRVTITCRTSQDIGNYLNWYQQKPGKAVKLLIYYTSRLHSGVPSRFSGSGSGTDYTLTISSLQPEDIATYFCQQGKSLPRTFGGGTKVEIKR

Source: patent publication US20260167717A1
